Measured values taken from the nanobody polyreactivity screen of Harvey et al. (2022).

assay: yeast display, Sf9 membrane polyspecificity reagent, FACS + sequencing; frameworks hold sequencing errors
Summary of the method: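 Galactose-induced (36–48 hours) yeast carrying a synthetic nanobody display library were exposed to 10% biotinylated, detergent-solubilized Sf9 membrane reagent at 4 °C for 1 hour. FACS followed streptavidin microbead enrichment, using low and high (top ~1%) gates for expression (anti-HA) and reagent binding (streptavidin). Colony PCR, MiSeq 2 × 250 sequencing and CDR-length filtering followed. Labels for polyreactivity reflect the gate of origin.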

| Sequence | polyreactivity (PSR sort gate) |
| --- | --- |
| QVQLVESGGGLVQAGGSLRLSCAASGSTFYLYAMGWYRQAPGKERELVAAISWSGDSTYYADSVKGRFTISRDNAKNTVYLQMNSLKPEDTAVYYCAAEFYWGDLSYWGQGTQVSVSS | high polyreactivity |
| QVQLVESGGGLVQAGGSLRLSCAASGSTFYLYAMGWYRQAPGKERELVAAISWSGGDTYYADSVKGRFTISRDNANNTVYLQMTSLKPEDSAVYYCAAEITYSYPGSPRRRDYWGQGTQVTVSS | low polyreactivity |
| QVQLVESGGGLVQAGGSLRLSCAASGSTFYLYAMGWYRQAPGKERELVASITSGDGSTYYADSVKGRFTISRDNPKNTVYLQMNSLKPEDTAVYDCNAVLEGWFYQDDYWGQGTQVSVSS | low polyreactivity |
| QVQLVESGGGLVQAGGSLRLSCAASGSTFYLYAMGWYRQAPGKERELVATITNGGGTNYADSVKGRFTISRDNAKNTVYLQMNSLKAEDTAVYYCAAKWYHRDGDYWGQGTQVTVSS | low polyreactivity |
| QVQLVESGGGLVQAGGSLRLSCAASGSTFYLYAMGWYRQAPGKERELVAVITTDGSTTYADSVKGRFTISRDNAKNTVYLQMNSLKPEDTAVYYCAAYGGNGQYYSQYDYWGQGTQVTVSS | low polyreactivity |
| QVQLVESGGGLVQAGGSLRLSCAASGSTFYLYGMGWYRQAPGKERELVAAITYSGGSTYYADSVKGRFTISRDNAKNTVYLQMNSLKPEDTAVYYCNARSQWRSSRFYYWGQGTQVTVSS | high polyreactivity |
| QVQLVESGGGLVQAGGSLRLSCAASGSTFYNNAMGWYRQAPGKERELVAVITDSGGRTYYADSVKGRFTISRDNAKNTVYLQMNSLKPEDTAVYYCAVVAPGGGDDYWGQGTQVTVSS | low polyreactivity |
| QVQLVESGGGLVQAGGSLRLSCAASGSTFYNYAMGWYRQAPGKERELVAAITSSGGSTYYADSVKGRFTISRDNAKNTVYLQMNSLKPEDTAVYYCAATRRVRRKSFTYRYDYWGQGTQVTVSS | high polyreactivity |
| QVQLVESGGGLVQAGGSLRLSCAASGSTFYNYAMGWYRQAPGKERELVAAITSSGGSTYYADSVKGRFTISRDNAKNTVYLQMNSLKPEDTAVYYCNADDGYGQVHSISTYEMDYWGQGTQVTVSS | low polyreactivity |
| QVQLVESGGGLVQAGGSLRLSCAASGSTFYNYVMGWYRQAPGKERELVAAINWSGCRTYYADSVKGRFTISRDNAKNTVYLQMNSLKPEDTAVYYCAAGYTLPWYKGFDYWGQGTQVTVSS | high polyreactivity |
| QVQLVESGGGLVQAGGSLRLSCAASGSTFYPYAMGWYRQAPGKERELVAAIRFSGASTYYADSVKGRFTISRDNAKNTVYLQMNSLKPEDTAVYYCAARYVYSWPYRYGYWGQGTQVTVSS | low polyreactivity |
| QVQLVESGGGLVQAGGSLRLSCAASGSTFYPYAMGWYRQAPGKERELVAAISISGGITYYADSVKGRFTISRDNAKNTVYLQMNSLKPEDTAVYYCAAEYLAVSGYWYDYWGQGTQVTVSS | high polyreactivity |
| QVQLVESGGGLVQAGGSLRLSCAASGSTFYPYAMGWYRQAPGKERELVAAISSGGSTSYADSVKGRFTISRDNAKNTVYLQMNSLKPEDTAVYYCNASSPGAVPVYYYDYWGQGTQVTVSS | low polyreactivity |
| QVQLVESGGGLVQAGGSLRLSCAASGSTFYPYDMGWYRQAPGKERELVATMTSTGGSTNYADSVKGRFTISRDNAKNTVYLQMNSLKPEDTAVYYCAKDWNDDQHSWDTPFDYWGQGTQVTVSS | low polyreactivity |
| QVQLVESGGGLVQAGGSLRLSCAASGSTFYPYLIGWYRQAPGKERELLPAISGGGRTYYADSVKGRFTISRDNAKNTVYLQMNSLKPEDTAVYFCAARYTTYSGRGTRPAGIRYDYWGQGTQVTVSS | high polyreactivity |
| QVQLVESGGGLVQAGGSLRLSCAASGSTFYRNAMGWYRPAPGKERELVAAINSTDSTNYADSVKGRFTISRDNAKNTVYLQMNSLKPEDTAVYYCAAVGDNLATAEYDYWGQGTQVTVSS | low polyreactivity |
| QVQLVESGGGLVQAGGSLRLSCAASGSTFYRNAMGWYRQAPGKEREFVAAISFRGGGTYADSVKGRFTISRDNAKNTVYLQMNSLKPEDTAVYYCAADHLSYRRRYEYWGLGTQVTVSS | low polyreactivity |
| QVQLVESGGGLVQAGGSLRLSCAASGSTFYRNAMGWYRQAPGKEREFVAAITTDDSTYYADSVKGRFTISRDNAKNTVYVQMNSLKPEDTAVYYCAAGLEGKATWAAVGGYDYWGQGTQVTVSS | low polyreactivity |
| QVQLVESGGGLVQAGGSLRLSCAASGSTFYRNAMGWYRQAPGKERELVAAISRDGSTYYADSVKGRFTISRDNAKNTVYLQMNSLKPEDTAVYSCAKAGVTNGVVVDSVYAYDYWGQGTQVTVSS | low polyreactivity |
| QVQLVESGGGLVQAGGSLRLSCAASGSTFYRNAMGWYRQAPGKERELVAAITSRGTRTFYADSVKGRFTISRDNAKNTVYLQMNSLKPEDTAVYYCAVTYQAEDEYDYWGQGTQVTVSS | low polyreactivity |

| Sequence | polyreactivity (PSR sort gate) |
| --- | --- |
| QVQLVESGGGLVQAGGSLRLSCAASGSTFYRNAMGWYRQAPGKERELVATISTGGVSTYYADSVKGRFTISRDNAKNTVYLQMNSLKPEDTAVYYCAKRTVYLSNLDYWGQGTQVTLSS | low polyreactivity |
| QVQLVESGGGLVQAGGSLRLSCAASGSTFYRNAMGWYRQARGKERELVAAISRGGSTYYADSVKGRFTISRDNAKNTVYLQMNSLKPEDTAVYYCNTDVNYAGYGWYYYWGQGTQVTVSS | high polyreactivity |
| QVQLVESGGGLVQAGGSLRLSCAASGSTFYRNVMGWYRQAPGKERELVAAISASGGSTYYADSVKGRFTISRDNAKNTVYLQMNSLKPEVTAVYYCAVDNRQYRYLYYYWGQGSQVTVSS | high polyreactivity |
| QVQLVESGGGLVQAGGSLRLSCAASGSTFYRYALGWYRQAPGKEREFVAAISRSGGSTNYADSVKGRFTISRDNAKNTVYLQMNSMKPEDTAVYYCAAKYSDYQYGRYYYWGQGTQVTVSS | high polyreactivity |
| QVQLVESGGGLVQAGGSLRLSCAASGSTFYRYAMGWYRQAPGKERELVAAISKRGGSTYYADSVKGRFTISRDNAKNTVYLQMNSLKPEDTAVYYCNAVGYKGTTYDYWGQGTQVTVSS | high polyreactivity |
| QVQLVESGGGLVQAGGSLRLSCAASGSTFYRYAMGWYRQAPGKERELVARIDWSDGSTNYADSVKGRFTISRDNAKNTVYLQMNSLKPEDTAVYYCAADTYSDTYDGEYEYWGQGTQVTVSS | low polyreactivity |
| QVQLVESGGGLVQAGGSLRLSCAASGSTFYRYAMGWYRQAPGNERELVAVLRYTSGRTYYADSVKGRFTISRDNAKYTVYLQMNSLKREDTAVYYCATDPYGTRGTDSRYNYWGQGIQVTVSS | high polyreactivity |
| QVQLVESGGGLVQAGGSLRLSCAASGSTFYSNAMGCYRQAPGKEREFVAAITGGDVRTYYADSVKGRFTISRDNAKNTVYLPMNSLKPEDTAVYFCATGPYIWPEWSPGFDYWGQGTQVTVSS | low polyreactivity |
| QVQLVESGGGLVQAGGSLRLSCAASGSTFYSYAMGWYRPAPGKERELVAAITTSGGSTYYADSVKGRFTISRDNAKNTVYLQMNSLKPEDTAVYYCNAYFIYEGGWYYKAQYDYWGQGTQVTVSS | low polyreactivity |
| QVQLVESGGGLVQAGGSLRLSCAASGSTFYSYAMGWYRQAPGKEREFVAVISWSGGRTRYADSVKGRFTISRDNAKNTVYLQMKSVKPEDTAVYYCNARKWGYSPHRKGDRHFEYWGQGTQVTVSS | low polyreactivity |
| QVQLVESGGGLVQAGGSLRLSCAASGSTFYSYAMGWYRQAPGKERELVAAISSGGSTYYADSVKGRFTISRDNAKNTGYLQMNSLKPEDTAVYYCAAKRRAKTGYRYDYWGQGTQVTVSS | high polyreactivity |
| QVQLVESGGGLVQAGGSLRLSCAASGSTFYSYAMGWYRQAPGKERELVAAITRGGSTYYADSVKGRFTISRDNAKNTVYLQMNSLKPEDTAVYYCAARPWTSASYDYWGQGTQVTVSS | low polyreactivity |
| QVQLVESGGGLVQAGGSLRLSCAASGSTFYSYAMGWYRQAPGKERELVAAITTSGVSTYYADSVKGRFTISRDNAKNTVYLQMNSLKPEDTAVYYCNAYFIYEGGWYYKAQYDYWGQGTQVTVSS | low polyreactivity |
| QVQLVESGGGLVQAGGSLRLSCAASGSTFYSYAMGWYRQAPGKERELVASITRGGSTNYADSVKGRFTISRDNAKNTVYLQMNSLKPEDTAVYYCITRGNARMDYWGQGTQVTVSS | high polyreactivity |
| QVQLVESGGGLVQAGGSLRLSCAASGSTFYSYTMGWYRQAPWKERELVATISWSGSSTYYADSVKGRFTISRDNAKNTVYLQMNSLKPEDTAVYYCAAEWDESYSYRRYRHYDYWGQGTQVTVSS | low polyreactivity |
| QVQLVESGGGLVQAGGSLRLSCAASGSTFYSYVMGGYRQAPGKERELVAAISKRGTSTYYADSVKGRFTISRDNAKYTVYLQMNSLKPEDNAVYYCAARPIVGVYPDIYDYWGHGTQVTVSS | low polyreactivity |
| QVQLVESGGGLVQAGGSLRLSCAASGSTFYTNAMGWYRQAPGKEREFVAAISGRGSNTYYADSVKGRFTISRDNAKNTVYLQMNSLKPEDTAVYYCAADFRSEHAEDYWGQGTQVTVSS | high polyreactivity |
| QVQLVESGGGLVQAGGSLRLSCAASGSTFYTNAMGWYRQAPWKERELVAAISNAVSTYYADSVKGRFTISRDNAKNTVYLQMKSLKPEDTAVYYCAADPIGLSSLWFRYSVSDVDYWGQGTQVTVSS | low polyreactivity |
| QVQLVESGGGLVQAGGSLRLSCAASGSTFYTNPMGWYRQAPGKEREFVAAISGSGSSTYADSVKGRFTISRDNAKNTVYLQMNSLKPEDTAVYYCAADWFILRTDYYWGQGTQVTVSS | low polyreactivity |
| QVQLVESGGGLVQAGGSLRLSCAASGSTFYTYAMGWYRQAPGKERELVAAISGSGGRTYYADSVKGRFTISRDNAKNTVYLQMNSLKPEDTAVYYCAAYSYRKHATGSRDMDYWGQGTQVTVSS | high polyreactivity |
